Measurements reported in PMC9584538 (Cell reports, 2022).
Values joined by “and” are separate entries in the source; they are usually repeats but may differ in a detail not shown here. Equal entries are not always repeated. Where two headings read alike, the source gives them in different places.

T1: PARL-protease-activated Skd3 (human CLPB), wild type (human, UniProt Q9H078 127-707)
T1 sequence (looked up): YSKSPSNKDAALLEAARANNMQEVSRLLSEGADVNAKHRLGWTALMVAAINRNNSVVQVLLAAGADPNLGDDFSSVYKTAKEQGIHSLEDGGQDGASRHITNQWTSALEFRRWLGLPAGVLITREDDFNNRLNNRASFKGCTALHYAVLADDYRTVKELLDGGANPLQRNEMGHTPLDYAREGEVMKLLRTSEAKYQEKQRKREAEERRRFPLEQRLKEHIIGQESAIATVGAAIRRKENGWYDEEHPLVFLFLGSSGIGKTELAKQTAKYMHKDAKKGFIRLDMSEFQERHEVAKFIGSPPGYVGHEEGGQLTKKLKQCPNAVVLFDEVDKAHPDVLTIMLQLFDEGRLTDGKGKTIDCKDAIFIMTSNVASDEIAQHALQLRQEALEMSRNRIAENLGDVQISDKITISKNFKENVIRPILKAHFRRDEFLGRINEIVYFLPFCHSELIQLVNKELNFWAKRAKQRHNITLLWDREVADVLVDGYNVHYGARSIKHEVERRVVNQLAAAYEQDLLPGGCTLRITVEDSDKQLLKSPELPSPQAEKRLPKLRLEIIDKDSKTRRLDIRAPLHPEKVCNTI


Key:
SEC [1] = molecular target: the molecule itself; assay: SEC
SEC [2] = molecular target: the molecule itself; assay: SEC; remark: listed apart in the source
[3] = molecular target: T1, PARL-protease-activated Skd3 (human …); assay: FRET or BRET

| binding result [3] | Binder | stoichiometry N (SEC [1]) | stoichiometry N (SEC [2]) |
| --- | --- | --- | --- |
| binds | _(PARL)Skd3^A591V (MGCA7-linked variant) (enzyme, human, UniProt Q9H078 127-707, looked up) YSKSPSNKDAALLEAARANNMQEVSRLLSEGADVNAKHRLGWTALMVAAINRNNSVVQVLLAAGADPNLGDDFSSVYKTAKEQGIHSLEDGGQDGASRHITNQWTSALEFRRWLGLPAGVLITREDDFNNRLNNRASFKGCTALHYAVLADDYRTVKELLDGGANPLQRNEMGHTPLDYAREGEVMKLLRTSEAKYQEKQRKREAEERRRFPLEQRLKEHIIGQESAIATVGAAIRRKENGWYDEEHPLVFLFLGSSGIGKTELAKQTAKYMHKDAKKGFIRLDMSEFQERHEVAKFIGSPPGYVGHEEGGQLTKKLKQCPNAVVLFDEVDKAHPDVLTIMLQLFDEGRLTDGKGKTIDCKDAIFIMTSNVASDEIAQHALQLRQEALEMSRNRIAENLGDVQISDKITISKNFKENVIRPILKAHFRRDEFLGRINEIVYFLPFCHSELIQLVNKELNFWAKRVKQRHNITLLWDREVADVLVDGYNVHYGARSIKHEVERRVVNQLAAAYEQDLLPGGCTLRITVEDSDKQLLKSPELPSPQAEKRLPKLRLEIIDKDSKTRRLDIRAPLHPEKVCNTI |  | 6 and 12 |
| binds | _(PARL)Skd3^R561G (SCN-linked variant, Arg finger) (enzyme, human, UniProt Q9H078 127-707, looked up) YSKSPSNKDAALLEAARANNMQEVSRLLSEGADVNAKHRLGWTALMVAAINRNNSVVQVLLAAGADPNLGDDFSSVYKTAKEQGIHSLEDGGQDGASRHITNQWTSALEFRRWLGLPAGVLITREDDFNNRLNNRASFKGCTALHYAVLADDYRTVKELLDGGANPLQRNEMGHTPLDYAREGEVMKLLRTSEAKYQEKQRKREAEERRRFPLEQRLKEHIIGQESAIATVGAAIRRKENGWYDEEHPLVFLFLGSSGIGKTELAKQTAKYMHKDAKKGFIRLDMSEFQERHEVAKFIGSPPGYVGHEEGGQLTKKLKQCPNAVVLFDEVDKAHPDVLTIMLQLFDEGRLTDGKGKTIDCKDAIFIMTSNVASDEIAQHALQLRQEALEMSRNRIAENLGDVQISDKITISKNFKENVIRPILKAHFRRDEFLGGINEIVYFLPFCHSELIQLVNKELNFWAKRAKQRHNITLLWDREVADVLVDGYNVHYGARSIKHEVERRVVNQLAAAYEQDLLPGGCTLRITVEDSDKQLLKSPELPSPQAEKRLPKLRLEIIDKDSKTRRLDIRAPLHPEKVCNTI |  | 12 |
| binds | _(PARL)Skd3^R475Q (MGCA7-linked variant) (enzyme, human, UniProt Q9H078 127-707, looked up) YSKSPSNKDAALLEAARANNMQEVSRLLSEGADVNAKHRLGWTALMVAAINRNNSVVQVLLAAGADPNLGDDFSSVYKTAKEQGIHSLEDGGQDGASRHITNQWTSALEFRRWLGLPAGVLITREDDFNNRLNNRASFKGCTALHYAVLADDYRTVKELLDGGANPLQRNEMGHTPLDYAREGEVMKLLRTSEAKYQEKQRKREAEERRRFPLEQRLKEHIIGQESAIATVGAAIRRKENGWYDEEHPLVFLFLGSSGIGKTELAKQTAKYMHKDAKKGFIRLDMSEFQERHEVAKFIGSPPGYVGHEEGGQLTKKLKQCPNAVVLFDEVDKAHPDVLTIMLQLFDEGQLTDGKGKTIDCKDAIFIMTSNVASDEIAQHALQLRQEALEMSRNRIAENLGDVQISDKITISKNFKENVIRPILKAHFRRDEFLGRINEIVYFLPFCHSELIQLVNKELNFWAKRAKQRHNITLLWDREVADVLVDGYNVHYGARSIKHEVERRVVNQLAAAYEQDLLPGGCTLRITVEDSDKQLLKSPELPSPQAEKRLPKLRLEIIDKDSKTRRLDIRAPLHPEKVCNTI |  | 12 |

More lines, now with the values behind:

| Binder | binding result [3] | stoichiometry N (SEC [1]) | stoichiometry N (SEC [2]) |
| --- | --- | --- | --- |
| _(PARL)Skd3^Δ3-4 (ankyrin repeats 3 and 4 deleted, ΔS263-K325) (enzyme, human, UniProt Q9H078 127-707, looked up) YSKSPSNKDAALLEAARANNMQEVSRLLSEGADVNAKHRLGWTALMVAAINRNNSVVQVLLAAGADPNLGDDFSSVYKTAKEQGIHSLEDGGQDGASRHITNQWTSALEFRRWLGLPAGVLITREDDFNNRLNNRAQRKREAEERRRFPLEQRLKEHIIGQESAIATVGAAIRRKENGWYDEEHPLVFLFLGSSGIGKTELAKQTAKYMHKDAKKGFIRLDMSEFQERHEVAKFIGSPPGYVGHEEGGQLTKKLKQCPNAVVLFDEVDKAHPDVLTIMLQLFDEGRLTDGKGKTIDCKDAIFIMTSNVASDEIAQHALQLRQEALEMSRNRIAENLGDVQISDKITISKNFKENVIRPILKAHFRRDEFLGRINEIVYFLPFCHSELIQLVNKELNFWAKRAKQRHNITLLWDREVADVLVDGYNVHYGARSIKHEVERRVVNQLAAAYEQDLLPGGCTLRITVEDSDKQLLKSPELPSPQAEKRLPKLRLEIIDKDSKTRRLDIRAPLHPEKVCNTI |  | 12 |  |
| _(PARL)Skd3^R620C (SCN-linked variant, sensor-2) (enzyme, human, UniProt Q9H078 127-707, looked up) YSKSPSNKDAALLEAARANNMQEVSRLLSEGADVNAKHRLGWTALMVAAINRNNSVVQVLLAAGADPNLGDDFSSVYKTAKEQGIHSLEDGGQDGASRHITNQWTSALEFRRWLGLPAGVLITREDDFNNRLNNRASFKGCTALHYAVLADDYRTVKELLDGGANPLQRNEMGHTPLDYAREGEVMKLLRTSEAKYQEKQRKREAEERRRFPLEQRLKEHIIGQESAIATVGAAIRRKENGWYDEEHPLVFLFLGSSGIGKTELAKQTAKYMHKDAKKGFIRLDMSEFQERHEVAKFIGSPPGYVGHEEGGQLTKKLKQCPNAVVLFDEVDKAHPDVLTIMLQLFDEGRLTDGKGKTIDCKDAIFIMTSNVASDEIAQHALQLRQEALEMSRNRIAENLGDVQISDKITISKNFKENVIRPILKAHFRRDEFLGRINEIVYFLPFCHSELIQLVNKELNFWAKRAKQRHNITLLWDREVADVLVDGYNVHYGACSIKHEVERRVVNQLAAAYEQDLLPGGCTLRITVEDSDKQLLKSPELPSPQAEKRLPKLRLEIIDKDSKTRRLDIRAPLHPEKVCNTI | binds |  | 12 |
| _(PARL)Skd3^R408G (MGCA7-linked variant) (enzyme, human, UniProt Q9H078 127-707, looked up) YSKSPSNKDAALLEAARANNMQEVSRLLSEGADVNAKHRLGWTALMVAAINRNNSVVQVLLAAGADPNLGDDFSSVYKTAKEQGIHSLEDGGQDGASRHITNQWTSALEFRRWLGLPAGVLITREDDFNNRLNNRASFKGCTALHYAVLADDYRTVKELLDGGANPLQRNEMGHTPLDYAREGEVMKLLRTSEAKYQEKQRKREAEERRRFPLEQRLKEHIIGQESAIATVGAAIRRKENGWYDEEHPLVFLFLGSSGIGKTELAKQTAKYMHKDAKKGFIGLDMSEFQERHEVAKFIGSPPGYVGHEEGGQLTKKLKQCPNAVVLFDEVDKAHPDVLTIMLQLFDEGRLTDGKGKTIDCKDAIFIMTSNVASDEIAQHALQLRQEALEMSRNRIAENLGDVQISDKITISKNFKENVIRPILKAHFRRDEFLGRINEIVYFLPFCHSELIQLVNKELNFWAKRAKQRHNITLLWDREVADVLVDGYNVHYGARSIKHEVERRVVNQLAAAYEQDLLPGGCTLRITVEDSDKQLLKSPELPSPQAEKRLPKLRLEIIDKDSKTRRLDIRAPLHPEKVCNTI | binds |  | 12 |
| _(PARL)Skd3^N496K (SCN-linked variant, sensor-1) (enzyme, human, UniProt Q9H078 127-707, looked up) YSKSPSNKDAALLEAARANNMQEVSRLLSEGADVNAKHRLGWTALMVAAINRNNSVVQVLLAAGADPNLGDDFSSVYKTAKEQGIHSLEDGGQDGASRHITNQWTSALEFRRWLGLPAGVLITREDDFNNRLNNRASFKGCTALHYAVLADDYRTVKELLDGGANPLQRNEMGHTPLDYAREGEVMKLLRTSEAKYQEKQRKREAEERRRFPLEQRLKEHIIGQESAIATVGAAIRRKENGWYDEEHPLVFLFLGSSGIGKTELAKQTAKYMHKDAKKGFIRLDMSEFQERHEVAKFIGSPPGYVGHEEGGQLTKKLKQCPNAVVLFDEVDKAHPDVLTIMLQLFDEGRLTDGKGKTIDCKDAIFIMTSKVASDEIAQHALQLRQEALEMSRNRIAENLGDVQISDKITISKNFKENVIRPILKAHFRRDEFLGRINEIVYFLPFCHSELIQLVNKELNFWAKRAKQRHNITLLWDREVADVLVDGYNVHYGARSIKHEVERRVVNQLAAAYEQDLLPGGCTLRITVEDSDKQLLKSPELPSPQAEKRLPKLRLEIIDKDSKTRRLDIRAPLHPEKVCNTI | binds |  | 6 |
| _(PARL)Skd3^K387A (Walker A) (enzyme, human, UniProt Q9H078 127-707, looked up) YSKSPSNKDAALLEAARANNMQEVSRLLSEGADVNAKHRLGWTALMVAAINRNNSVVQVLLAAGADPNLGDDFSSVYKTAKEQGIHSLEDGGQDGASRHITNQWTSALEFRRWLGLPAGVLITREDDFNNRLNNRASFKGCTALHYAVLADDYRTVKELLDGGANPLQRNEMGHTPLDYAREGEVMKLLRTSEAKYQEKQRKREAEERRRFPLEQRLKEHIIGQESAIATVGAAIRRKENGWYDEEHPLVFLFLGSSGIGATELAKQTAKYMHKDAKKGFIRLDMSEFQERHEVAKFIGSPPGYVGHEEGGQLTKKLKQCPNAVVLFDEVDKAHPDVLTIMLQLFDEGRLTDGKGKTIDCKDAIFIMTSNVASDEIAQHALQLRQEALEMSRNRIAENLGDVQISDKITISKNFKENVIRPILKAHFRRDEFLGRINEIVYFLPFCHSELIQLVNKELNFWAKRAKQRHNITLLWDREVADVLVDGYNVHYGARSIKHEVERRVVNQLAAAYEQDLLPGGCTLRITVEDSDKQLLKSPELPSPQAEKRLPKLRLEIIDKDSKTRRLDIRAPLHPEKVCNTI | binds |  |  |
